Results reported in article PMC3949526, “The structure of an authentic spore photoproduct lesion in DNA suggests a basis for recognition”.

Tests used:
[1] = target: T1, N-terminal fragment of MMLV reverse transcriptase (fingers and palm domains) (Moloney murine leukemia virus, UniProt P03355 683-937); experiment: X-ray crystallography (2.14 A); host-guest complex; SP lesions in central 10 bp, free of protein contacts; Crystallization: protein 2 mM in 50 mM MES pH 6.0, 0.3 M NaCl, 1 mM DTT; DNA 2.5 mM duplex in 10 mM HEPES pH 7.0, 10 mM MgCl2; crystallization buffer and temperature not given in the material; details: protein: recombinant; tags: 6xHis tag removed with thrombin; chain copies: 2; blunt; self-complementary, 2 copies of one strand
[2] = target: T1, N-terminal fragment of MMLV reverse …; experiment: X-ray crystallography (1.72 A); host-guest complex; undamaged DNA; Crystallization: protein 2 mM in 50 mM MES pH 6.0, 0.3 M NaCl, 1 mM DTT; DNA 2.5 mM duplex in 10 mM HEPES pH 7.0, 10 mM MgCl2; crystallization buffer and temperature not given in the material; details: protein: recombinant; tags: 6xHis tag removed with thrombin; chain copies: 2; blunt; self-complementary, 2 copies of one strand

T1 sequence (P03355 683-937): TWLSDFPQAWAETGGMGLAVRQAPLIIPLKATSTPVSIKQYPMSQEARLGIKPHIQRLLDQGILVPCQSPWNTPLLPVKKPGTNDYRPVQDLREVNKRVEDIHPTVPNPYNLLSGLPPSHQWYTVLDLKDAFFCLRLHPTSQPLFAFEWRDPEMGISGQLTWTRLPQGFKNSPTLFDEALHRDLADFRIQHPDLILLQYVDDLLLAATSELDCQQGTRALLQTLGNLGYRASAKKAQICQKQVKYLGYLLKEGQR

Row | Binder | binding result [1] | binding result [2]
1 | SP DNA 16-mer (dsDNA, spore photoproduct (5-thyminyl-5,6-dihydrothymine) linking T6 and T7 in each strand) DNA 1: ATCCGTTATAACGGAT DNA 2: ATCCGTTATAACGGAT | binds | 
2 | non-SP DNA 16-mer (dsDNA) DNA 1: ATCCGTTATAACGGAT DNA 2: ATCCGTTATAACGGAT |  | binds
